Earlier results in PMC6678900.

Key:
TRAILR1 (Homo sapiens) = TRAILR1 (Homo sapiens) (UniProt O00220)
TRAILR2 (Homo sapiens) = TRAILR2 (Homo sapiens) (UniProt O14763)
TRAILR4 (Homo sapiens) = TRAILR4 (Homo sapiens) (UniProt Q9UBN6)

**Q.** For TRAILR1 (from UniProt O00220), which Kd (TRAILR1 (Homo sapiens)) is on record?
**A.** > 1000 nM

**Q.** Which Kd (TRAILR2 (Homo sapiens)) does the source give for TRAILR2 (from UniProt O14763) here?
**A.** > 1000 nM

**Q.** With TRAILR4 (from UniProt Q9UBN6) as the substance, how does the Kd (TRAILR4 (Homo sapiens)) read?
**A.** > 1000 nM
